{"source": "patent US20030078221", "about": "“High affinity nucleic acid ligands of complement system proteins” (Gilead Sciences, Inc., published 2003)", "key": {"Complement C1q [1]": {"molecular_target": "T1, Complement C1q (UniProt P02745;P02746;P02747 P02745:23-245,P02746:28-253,P02747:29-245)", "T1 sequence (P02745 23-245, chain 1 of 3)": "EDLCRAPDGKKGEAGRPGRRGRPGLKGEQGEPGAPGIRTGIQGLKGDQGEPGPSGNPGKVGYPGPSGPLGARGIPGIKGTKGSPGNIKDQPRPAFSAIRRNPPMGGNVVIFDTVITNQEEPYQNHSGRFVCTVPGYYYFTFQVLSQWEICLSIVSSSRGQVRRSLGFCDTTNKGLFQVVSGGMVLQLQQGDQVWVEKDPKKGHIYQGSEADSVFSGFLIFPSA", "T1 sequence (P02746 28-253, chain 2 of 3)": "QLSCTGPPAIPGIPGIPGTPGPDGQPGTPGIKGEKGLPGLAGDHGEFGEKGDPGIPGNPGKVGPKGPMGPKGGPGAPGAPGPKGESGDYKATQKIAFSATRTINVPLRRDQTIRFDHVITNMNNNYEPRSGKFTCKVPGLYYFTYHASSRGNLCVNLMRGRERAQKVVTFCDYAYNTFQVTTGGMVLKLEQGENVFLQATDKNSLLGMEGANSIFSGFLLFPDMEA", "T1 sequence (P02747 29-245, chain 3 of 3)": "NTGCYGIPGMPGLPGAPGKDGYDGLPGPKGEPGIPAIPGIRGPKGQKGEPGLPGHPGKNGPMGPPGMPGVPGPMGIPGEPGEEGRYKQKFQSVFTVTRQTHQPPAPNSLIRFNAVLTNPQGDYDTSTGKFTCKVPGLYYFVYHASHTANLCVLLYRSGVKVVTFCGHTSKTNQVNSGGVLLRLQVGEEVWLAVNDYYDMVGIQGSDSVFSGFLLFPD", "assay": "filter; MgPBS 37C", "conditions": "tags: Quidel; chain copies: 6", "protocol": "(§1) Individual cloned DNA was T7 transcribed with α-[³²P]-ATP and the full length [³²P]-2′-NH₂-RNA or 2′-F-RNA was gel-purified (as above). RNA was suspended at approximately 5,000 cpm per 30 μL sample (<10 pM), and aliquots were incubated with various concentrations of C1q, C3 or C5 in MgPBS for 10 minutes at 37° C. Samples were then filtered through nitrocellulose, the filters washed with buffer and dried under an infrared lamp, and counted with addition of scintillation fluid (Ecoscint A, National Diagnostics, Atlanta, Ga.). A background sample of RNA alone was run in parallel. […] Filters were washed and counted."}, "Complement C1q [2]": {"molecular_target": "T1, Complement C1q", "assay": "filter; above background; SEQ 20 in listing differs from Table 2", "conditions": "tags: Quidel; chain copies: 6"}, "Complement C1q [3]": {"molecular_target": "T1, Complement C1q", "assay": "filter; MgPBS 37C; SEQ 12 in listing differs from Table 2 near the 3' end", "conditions": "tags: Quidel; chain copies: 6", "protocol": "as §1"}, "Complement C5 [4]": {"molecular_target": "T2, Complement C5 (Homo sapiens, UniProt P01031;P01031 P01031:19-673,P01031:678-1676)", "assay": "filter; MgPBS 37C", "conditions": "tags: Quidel", "protocol": "as §1\n(§2) Sequences were grouped according to homology and function."}, "Complement C1q [5]": {"molecular_target": "T1, Complement C1q", "assay": "filter; above background at 0.1 and 0.5 nM C1q", "conditions": "tags: Quidel; chain copies: 6"}, "Complement C5 [6]": {"molecular_target": "T2, Complement C5", "assay": "filter; Kd not given", "conditions": "tags: Quidel"}, "Complement C5 [7]": {"molecular_target": "T2, Complement C5", "assay": "filter", "conditions": "tags: Quidel"}, "Complement C1q [8]": {"molecular_target": "T1, Complement C1q", "assay": "filter; above background; SEQ 13 in listing differs from Table 2 near the 3' end", "conditions": "tags: Quidel; chain copies: 6"}, "Complement C5 [9]": {"molecular_target": "T2, Complement C5", "assay": "filter; Group I affinities stated very similar", "conditions": "tags: Quidel", "protocol": "as §1, §2"}, "Complement C5 [10]": {"molecular_target": "T2, Complement C5", "assay": "filter; reduced binding", "conditions": "tags: Quidel"}, "Complement C1q [11]": {"molecular_target": "T1, Complement C1q", "assay": "FP; nitrocellulose filter binding, MgPBS 37C", "conditions": "tags: Quidel; chain copies: 6", "protocol": "as §1"}, "Complement C5 [12]": {"molecular_target": "T2, Complement C5", "assay": "filter; >10-fold over background at 100 and 10 nM C5; 2'-OMe interference", "conditions": "tags: Quidel", "text": "The partially substituted 2′-OMe oligonucleotides were 5′-[³²P] -kinase-labeled. […] The oligonucleotides were eluted from the protein, alkaline hydrolyzed and then run on a 20% acrylamide/7 M urea/TBE sequencing gel. On adjacent tracks were run oligonucleotides not selected with C5. Band intensities were quantitated with on an Instantlmager (Packard, Meriden, Conn.)."}, "Complement C5 [13]": {"molecular_target": "T2, Complement C5", "assay": "filter; minimal binding truncate", "conditions": "tags: Quidel; stem-loop with UUU bulge", "protocol": "as §1"}}, "data": [{"binder": "C1q clone 14 (ssRNA, 2'-NH2 pyrimidines) RNA: GGGAGGACGAUGCGGCACCUCACCUCCAUAUUGCCGGUUAUCGCGUAGGGUGAGCCCAGACACGACAGACGACUCGCCCGA", "values": [{"measurement": "Kd", "setting": "Complement C1q [1]", "value": 2.4, "unit": "nM"}]}, {"binder": "C1q clone 67 (ssRNA, 2'-NH2 pyrimidines) RNA: GGGAGGACGAUGCGGCAGACGACUCGCCCGAGGGGAUCCCCCGGGCCUGCAGGAAUUCGAUAUCAGACGACUCGCCCGA", "values": [{"measurement": "binding result", "setting": "Complement C1q [2]", "value": "binds"}]}, {"binder": "C1q clone 50 (ssRNA, 2'-NH2 pyrimidines) RNA: GGGAGGACGAUGCGGGUGGAGUGGAGGUAUAACGGCCGGUAGCGCAUCCCACUCGGGUCUGUGCUAGACGACUCGCCCGA", "values": [{"measurement": "Kd", "setting": "Complement C1q [3]", "value": 0.979, "unit": "nM"}]}, {"binder": "C1q clone 45 (ssRNA, 2'-NH2 pyrimidines) RNA: GGGAGGACGAUGCGGUGGAGUGGAGGUAUACCGGCCGGUAGCGCAUCCCACUCGGGUCUGUGCUCAGACGACUCGCCCGA", "values": [{"measurement": "Kd", "setting": "Complement C1q [1]", "value": 1.38, "unit": "nM"}]}, {"binder": "C9 (ssRNA, 2'-F pyrimidines) RNA: GGGAGGACGAUGCGGUGAGCGUGUAAAACGGUUUCGAUAGAGCCUCAGACGACUCGCCCGA", "values": [{"measurement": "Kd", "setting": "Complement C5 [4]", "value": 45, "unit": "nM"}]}, {"binder": "C1q clone 33 (ssRNA, 2'-NH2 pyrimidines) RNA: GGGAGGACGAUGCGGGUUGCUGGUAGCCUGAUGUGGGUGGAGUGAGUGGAGGGUUGAAAAAUGCAGACGACUCGCCCGA", "values": [{"measurement": "Kd", "setting": "Complement C1q [1]", "value": 3.85, "unit": "nM"}]}, {"binder": "C1q clone 22 (ssRNA, 2'-NH2 pyrimidines) RNA: GGGAGGACGAUGCGGGCAUAGUGGGCAUCCCAGGGUUGCCUAACGGCAUCCGGGGUUGUUAUUGGCAGACGACUCGCCCGA", "values": [{"measurement": "binding result", "setting": "Complement C1q [5]", "value": "binds"}]}, {"binder": "C1q clone 43 (ssRNA, 2'-NH2 pyrimidines) RNA: GGGAGGACGAUGCGGUUUCUCGGCCAGUAGUUUGCGGGUGGAGUGGAGGUAUAUCUGCGUCCUCGCAGACGACUCGCCCGA", "values": [{"measurement": "binding result", "setting": "Complement C1q [5]", "value": "binds"}]}, {"binder": "GACGAUGCGGUCUCAUGCGUCGAGUGUGAGUUUACCUUCGUC (ssRNA, 2'-F pyrimidines)", "note": "[C6 42mer truncate]", "values": [{"measurement": "binding result", "setting": "Complement C5 [6]", "value": "binds"}]}, {"binder": "GGGAGGAGGAUCGGUGUUCAGCAUUCAGAUCUUCAGACGACUCGCCCGA (ssRNA, 2'-F pyrimidines)", "note": "[E4c]", "values": [{"measurement": "Kd", "setting": "Complement C5 [4]", "value": 50, "unit": "nM"}]}, {"binder": "YL-79 (ssRNA, 2'-F pyrimidines) RNA: GGGAGAUAAGAAUAAACGCUCAAGAACCACGCGGUCUCAGGCGUAGAGUCUGAGUUUACCUUGGUUUUCGACAGGAGGCUCACAACAGGC", "values": [{"measurement": "Kd", "setting": "Complement C5 [7]", "value": 15, "unit": "nM"}]}, {"binder": "YL-13 (ssRNA, 2'-F pyrimidines) RNA: GGGAGAUAAGAAUAAACGCUCAAGGACGCCGCGGUCUCAGGCGCUGAGUCUGAGUUUACCUGCGUCUUCGACAGGAGGCUCACAACAGGC", "values": [{"measurement": "Kd", "setting": "Complement C5 [7]", "value": 6, "unit": "nM"}]}, {"binder": "C1q clone 78 (ssRNA, 2'-NH2 pyrimidines) RNA: GGGAGGACGAUGCGGGUGGAGUGGAGGGUAAACAAUGGCUGGUGGCAUUCGGAAUCUCCCAACGUAGACGACUCGCCCGA", "values": [{"measurement": "binding result", "setting": "Complement C1q [8]", "value": "binds"}]}, {"binder": "E5c/E11 (ssRNA, 2'-F pyrimidines) RNA: GGGAGGACGAUGCGGUCCGGCGCGCUGAGUGCCGGUUAUCCUCGUCAGACGACUCGCCCGA", "values": [{"measurement": "Kd", "setting": "Complement C5 [4]", "value": 60, "unit": "nM"}]}, {"binder": "F8 (ssRNA, 2'-F pyrimidines) RNA: GGGAGGACGAUGCGGUCUCAUGCGCCGAGUGUGAGUUUACCUUCGUCAGACGACUCGCCCGA", "values": [{"measurement": "Kd", "setting": "Complement C5 [4]", "value": 30, "unit": "nM"}]}, {"binder": "G7 (ssRNA, 2'-F pyrimidines) RNA: GGGAGGACGAUGCGGUCUGCUACGCUGAGUGGCUGUUUACCUUCGUCAGACGACUCGCCCGA", "values": [{"measurement": "binding result", "setting": "Complement C5 [9]", "value": "binds"}]}, {"binder": "K7 (ssRNA, 2'-F pyrimidines) RNA: GGGAGGACGAUGCGGUCUCAUGCGUCGAGUGUGAGUUUAACUGCGUCAGACGACUCGCCCGA", "values": [{"measurement": "binding result", "setting": "Complement C5 [9]", "value": "binds"}]}, {"binder": "H1 (ssRNA, 2'-F pyrimidines) RNA: GGGAGGACGAUGCGGUCGGAUGCGCCGAGUCUCCGUUUACCUUCGUCAGACGACUCGCCCGA", "values": [{"measurement": "binding result", "setting": "Complement C5 [9]", "value": "binds"}]}, {"binder": "GAUGCGGUCUCAUGCGUCGAGUGUGAGUUUACCUUC (ssRNA, 2'-F pyrimidines)", "note": "[C6 36mer truncate]", "values": [{"measurement": "Kd", "setting": "Complement C5 [10]", "value": 50, "unit": "nM"}]}, {"binder": "YL-14 (ssRNA, 2'-F pyrimidines) RNA: GGGAGAUAAGAAUAAACGCUCAAGUACGACGCGGUCCCGUGCGUGGAGUGCGGGUUUACCUUCGUAUUCGACAGGAGGCUCACAACAGGC", "values": [{"measurement": "Kd", "setting": "Complement C5 [7]", "value": 25, "unit": "nM"}]}, {"binder": "C1q clone 36 (ssRNA, 2'-NH2 pyrimidines) RNA: GGGAGGACGAUGCGGGAGGAGUGGAGGUAAACAAUAGGCCGGUAGCGACUCCCACUAACAGCCUCAGACGACUCGCCCGA", "values": [{"measurement": "Kd", "setting": "Complement C1q [11]", "value": 0.29, "unit": "nM"}]}, {"binder": "C1q clone 12 (ssRNA, 2'-NH2 pyrimidines) RNA: GGGAGGACGAUGCGGGUGGAGUGGAGGUAAACAAUAGGUCGGUAGCGACUCCCAGUAACGGCCUCAGACGACUCGCCCGA", "values": [{"measurement": "binding result", "setting": "Complement C1q [5]", "value": "binds"}]}, {"binder": "C1q clone 30 (ssRNA, 2'-NH2 pyrimidines) RNA: GGGAGGACGAUGCGGGUGGAGUGGGGAUCAUACGGCUGGUAGCACGAGCUCCCUAACAGCGGUCAGACGACUCGCCCGA", "values": [{"measurement": "binding result", "setting": "Complement C1q [5]", "value": "binds"}]}, {"binder": "YL-56 (ssRNA, 2'-F pyrimidines) RNA: GGGAGAUAAGAAUAAACGCUCAAGGUACACGCGGUCUGACGCGCUGAGUGUCAGUUUACCUUGUACUUCGACAGGAGGCUCACAACAGGC", "values": [{"measurement": "Kd", "setting": "Complement C5 [7]", "value": 12, "unit": "nM"}]}, {"binder": "C1q clone 40 (ssRNA, 2'-NH2 pyrimidines) RNA: GGGAGGACGAUGCGGCUGGUAGCAUGUGCAUUGAUGGGAGGAGUGGAGGUCACCGUCAACCGUCAGACGACUCGCCCGA", "values": [{"measurement": "binding result", "setting": "Complement C1q [5]", "value": "binds"}]}, {"binder": "C1q clone 3 (ssRNA, 2'-NH2 pyrimidines) RNA: GGGAGGACGAUGCGGGAGGAGUGGAGGUAAACAAUAGGUCGGUAGCGACUCCCACUAACAGGCCUCAGACGACUCGCCCGA", "values": [{"measurement": "binding result", "setting": "Complement C1q [5]", "value": "binds"}]}, {"binder": "CGCCGCGGUCUCAGGCGCUGAGUCUGAGUUUACCUGCG (ssRNA, 2'-F pyrimidines; selected purines 50% 2'-OMe)", "note": "[M3010]", "values": [{"measurement": "binding result", "setting": "Complement C5 [12]", "value": "binds"}]}, {"binder": "CGCCGCGGUCUCAGGCGCUGAGUCUGAGUUUACCUGCG (ssRNA, 2'-F pyrimidines; selected purines 50% 2'-OMe)", "note": "[M3030]", "values": [{"measurement": "binding result", "setting": "Complement C5 [12]", "value": "binds"}]}, {"binder": "CGCCGCGGUCUCGGGCGCUGAGUCUGAGUUUACCUGCG (ssRNA, 2'-F pyrimidines; selected purines 50% 2'-OMe)", "note": "[M3020]", "values": [{"measurement": "binding result", "setting": "Complement C5 [12]", "value": "binds"}]}, {"binder": "C1q clone 23c (ssRNA, 2'-NH2 pyrimidines) RNA: GGGAGGACGAUGCAAGUGGAGUGGAGGUAUAACGGCCGGUAGGCAUCCCACUCGGGCCUAGCUCAGACGACUCGCCCGA", "values": [{"measurement": "binding result", "setting": "Complement C1q [5]", "value": "binds"}]}, {"binder": "CGAUGCGGUCUCAUGCGUCGAGUGUGAGUUUACCUUCG (ssRNA, 2'-F pyrimidines)", "note": "[C6 38mer truncate]", "values": [{"measurement": "Kd", "setting": "Complement C5 [13]", "value": 20, "unit": "nM"}]}, {"binder": "A6 (ssRNA, 2'-F pyrimidines) RNA: GGGAGGACGAUGCGGUCCGGCGCGCUGAGUGCCGGUUUAUCCUCGUCAGACGACUCGCCCGA", "values": [{"measurement": "Kd", "setting": "Complement C5 [4]", "value": 35, "unit": "nM"}]}, {"binder": "C1q clone 47 (ssRNA, 2'-NH2 pyrimidines) RNA: GGGAGGACGAUGCGGGUGGAGCGGAGGUUUAUACGGCUGGUAGCUCGAGCUCCCUAACACGCGGUAGACGACUCGCCCGA", "values": [{"measurement": "binding result", "setting": "Complement C1q [5]", "value": "binds"}]}]}
